Assay: soluble on expression in E. coli; label from the status in PepcDB or PDB records

| Sequence | soluble on expression in E. coli |
| --- | --- |
| MDITELLAFSAKQGASDLHLSAGLPPMIRVDGDVRRINLPPLEHKQVHALIYDIMNDKQRKDFEEFLETDFSFEVPGVARFRVNAFNQNRGAGAVFRTIPSKVLTMEELGMGEVFKRVSDVPRGLVLVTGPTGSGKSTTLAAMLDYLNNTKYHHILTIEDPIEFVHESKKCLVNQREVHRDTLGFSEALRSALREDPDIILVGEMRDLETIRLALTAAETGHLVFGTLHTTSAAKTIDRVVDVFPAEEKAMVRSMLSESLQSVISQTLIKKIGGGRVAAHEIMIGTPAIRNLIREDKVAQMYSAIQTGGSLGMQTLDMCLKGLVAKGLISRENAREKAKIPENFGAAALEHHHHHH | soluble |
| MKKGLTFSITSAALFFGMNHVASADQIHTVKEDAKLTDIAQTFATTTTEIQNLNHLQNRDYVQVGETIVLPDSDIVEVKDGDTIKAIAERHQMTMNQLYQLNPNLGEVIYPGQLVAVSEKGSAHLNNQLQQIFNSHEAVQPTAQINDDERNKAENNTIRNVRTSGNITPSATQTWQNNDYSASDRQQVSNTTANEQVTSNYQYSPVSHASNGSNYYDWGQCTYYAFDRRQQLGKSVGNLWGNANNWASAAQQSGYQVNNTPEVGAIFQSTAGNYGHVGVVESKNADGSIVVSEMNWQGVGQKSYRTIHNTGQYNYIHLEHHHHHH | not soluble |
| MSLTQKPLTVVVGPPSAGKSTWVKAAAKASDLVIDLDILAPTVIGKPMWIADSRERSLVIRERNSLVAEYMRGKTAHPHCFLIDTAGSFKRRKFWLDRGADVVLLDTDKDICRARIRQCSARPESTRAGRLAAVDRWEEGHHHHHH | soluble |
| MSLSSARFDSSDRSAWYMGPVSRQEAQTRLQGQRHGMFLVRDSSTCPGDYVLSVSENSRVSHYIINSLPNRRFKIGDQEFDHLPALLEFYKIHYLDTTTLIEPAPRYPSPPMGSVSAPNLPTAEDNLEYVRTLYDFPGNDAEDLPFKKGEILVIIEKPEEQWWSARNKDGRVGMIPVPYVEKLVRSSPHGKHGNRNSNSYGIPEPAHAYAQPQTTTPLPAVSGSPGAAITPLPSTQNGPVFAKAIQKRVPCAYDKTALALEVGDIVKVTRMNINGQWEGEVNGRKGLFPFTHVKIFDPQNPDENEGHHHHHH | soluble |
| MGSDKIHHHHHHMNVHKIVWQEGMLLRPQHLQHNDRYYDNQMKARTQLLGSYNWGFLALELDRQFLNMGKLVISQASGVLPDGSLFELGGNTEPLALDVPPNTSNVPIYLALPLVTGNHIEARRPEQAEVLARYTAYDLEVADSNAGEDSMVQVSCARPDFRLLLGEQQSDQAYVKLKVAVVLDSTPDGVISLDPDFVPSYLHAHASAYLLSCLKEVISMLGHRGDTIAERIRSNGKVGGAEVGDFMMLQLINRTELLLRHYLGLEQVHPEQLYRVLLTMLGDLATFGSESKRPRLDSRYQHSDQGASFRRLMEAIRQVLSMVLEQHAIELPLQARQYGILVSPLHDHKLLGSASFVLAASANCESEELRQRLPAHLKVGAVEHIRQLVNLHLPGIRVKPLPVAPRQIPFHSNKTYFILEPNAEDMAQLERSGGFAFHVSGEFSELELKFWAIRN | not soluble |
| MGSDKIHHHHHHMELASSYDKHDIRYLSASEMAELRVTNVAANQSPADTSQVSTRPDPAPVPVPAPDARQQVESAAVAFVKDLIEHHGDNDDFALAQVQASYARTVDYYGKLTNLSSIIQDKRNYYRRWPERIYNVRNDSIVVTCANDRCMVSGIYDWVVRSPSIHKQDKGASNFSYTISTGPYPKIIAETSKVRS | not soluble |
| SMRSGSSMKEEPLGSGMNAVRTWMQGAGVLDANTAAQSGVGLARAHFEKQPPSNLRKSNFFHFVLALYDRQGQPVEIERTAFVGFVEKEKEANSEKTNNGIHYRLQLLYSNGIRTEQDFYVRLIDSMTKQAIVYEGQDKNPEMCRVLLTHEIMCSRCCDKKSCGNRNETPSDPVIIDRFFLKFFLKCNQNCLKNAGNPRDMRRFQVVVSTTVNVDGHVLAVSDNMFVHNNSKHGRRARRLDPS | soluble |
| MGYHGGTMRVLGRRIYWRWYGEVLLEGGVTLRMTGDVAKWLRPGDRVRLRTEFKKPVLGFDEYALEAVFPLWPPFAKTLEHVRESPFGGKAYRYRLKVREATYEGDYEAIAELEQFHYASEKEVVALWVCTQCQKTLPANARPLCDCGGEARLKEIRGSTPASRFLVLELAERLPFEPRILGYLRLDPPIPRMHRRTPEGVERDIRERIFPRDWFHPTYEGGADWQRALDRVNTAAARIARVVVHPDYRSEGFGALLVRVALEWAKERGAPEARREKHLVYTIAQMARYHPFFEKVGFRYLFDTASGRPVLFYPLTEEAEAHLERFLREDPYAKAHGGRLYKPRFGRVPGLPGPIRLRGVHKAYRSHLDLEGLSREVQEALLAFGVKARVVERAVLRGASLEIPPGSLVVLAGASGAGKTTLLRLLLGEAPDAGEVAVPPGRRVAYIPGEREVDLGEDPILEAVYRRLKDVGAAIEVLNRVGLSDAVLYRARPHELSTGQRERFRLALLLAERPDLLLIDEFAAHLDVPTARRVALGLGKLCREAGVTLVAATHRPEVVAALDPDLLVYVGYGGLTTVPRRGPRT | soluble |
| MGSDKIHHHHHHMAKKHRKESLDALFREKVLLEMLKIAGVGMWTYSTETGRLRYIGFADTIHRHDELQYVDPADYLKLMNGEDLQTVTQFMADIHAGRPPQEGIRYKIHGNGEDFYLENHVVTCQPLGNGFYYLKGYVKNITAQVMEANRLCIEKERTEQADRLRSAFFAHVSRELRGPLNRIEELASQMVHAESVEEREECFHRIQENRRMAMKIADALHAVSQLPVSTYEPYHSPMQLCLIYRDLLMENGYSHNPEDGEQEENANFLSLLFS | not soluble |
| MPEFIIVEGNNDLGEFFQIDGELFSDNELLENLKKWREWEVPVIIDDWCNRILNEDETEILYFPTHEDKMNYIRVEKDLEPLYHTSNKIYATISKSEWLELLN | not soluble |
| MAHHHHHHMKENVLINENIKAHEEKGNLNDDKRDEHMISLRGLNIYYKDKLENLNTIKNIDNNKKFIKLVLEDVDLKPEEIMKHILHLLKEKTSLHTILEINKQKYKIKYKEIIPDDHILFTQNIQNITNCKYALLGILKVSKYTKKNTFNEKLLQSWQDVPMEF | not soluble |
| QLLEPIRDFEARKCPVHGKTMELFCQTDQTCICYLCMFQEHKNHSTVTVEEAKAEKETE | soluble |
| MTDKWLDTINWSADGLIPAIAQDKNNGKILMVAWMNREALKRTVESGEAVYWSRSRKKLWHKGEESGHTQKISAIHLDCDEDILLLSVEQKGGIACHTGRQSCFFRQLKNGEWVVTEPVIKDPSQIYTK | not soluble |
| MKADHPEDIEDIKELIAQTENEQVEFKETTGQLERGMETLCAFLNGEGGTVLFGITDKGKIIGQEVADVTKRSIAEAINRLEPTANVHVFYIPLPDSSKKIIALHVENSRDNRPFCYKSRPYYRVESVTSAMPQAVYNQLLIIRDEAKYRWELFENPKLSLQDMDENEILKTVRLGIECGRLPENTGNNLSIILEKFGLLVNGVLNNAAAVLFANRELIEYPQCLLRLARFKGTDKMVFMDNQRVQGNLFQLLDSAMTFIFKHLSLSGTTEALEREEHLTIPYKAIREGIINSLCHRQFRTPGGSVGIAIYDDRVEIENPGTFPHGWDMERMKSEHCSEPRNPLIANVLYKRKLLENWGRGISLMTEECRKANLPEPEFKLANGFVILVFRYGTNNHTSTMQVPHKHHISTIQVQSLLNIMEYNTYSVKEMMELLELKNRSYFSKEYLKPAVETGVIEPIFPDQPKSPKQKYRLTEKGKALLEKRLEHHHHHH | soluble |
| MSLKRTEISSLGEFGLIRHLTDCVRLKNPGTLKGIGDDAAVISFDEGMKALVTTDMLLEGIHFDLTYTPLKHLGYKSAIVNFSDIYAMNGTPRQLTVSIGVSARFSVEDIEQIYQGILTACDAYGVDLVGGDTSASLTGLCLSLTCIGEAREEEIVYRSGAKPTDLICVSGDLGAAYMGLQLLEREKAVYQGEKDFAPDFAGHEYILERQLKPEARKDIVEELRSAGIKPTAMMDISDGLSSELLHIAHAGKVGVRIYDDKLPIDYQTAAMAEEFNMNLSTAALNGGEDYELLFTVPLTRLDDIQRIEGIHLIGHITEEADGHLLVARDGTEITLVAQGWNAAKALNGEGHHHHHH | soluble |
| MSLKTWFITGTSSGFGKELATIVARQSDTQLIAAARHTDDLAYLDVFDATRIEKVSIDVTNESQIKTGVAQAIQRFGTIDVLVNNAGLGYFSTIEESDMAKVRYMFEVNVMGLANVTRTVLPTMRAHHAGIIINLSSALALTTLPTMGFYSATKYAVEGYSDTLRQEVKDLGIQIMTVEPSGARTQWSGRSSQKMVPTIADYAAFSDAITTVSDSVTQAPGNPHRIAQVMFDQANLAEVPAHLPLGEFAYQGGLANLQSIVSEIKSREDLSLSTDEGHHHHHH | not soluble |
| QFLQKQHFLILGLAKSGYAAASILHEKGIYVAVNDQKPFEENEPAQKLSEKGIEVVCGEHPVSLFDQHQITILIKNPGIPYENIMVQEAEKRGIPVW | not soluble |
| MSLEEQLAQNDQPSEKLVRLYGAWAEGGAGVLVTGNVMVAESGKGSINDVLISDDRALEMLKKWAKARTQNDTLLIMQINHAGKQSPAVVNKTPLAPSAVPLVGMNGFINPPRELSADEINGLIQQFVQTAKIAEQAGFSGVQIYAVHGYLISQFLSPHHNRRQDQWGGSLENRMRFLLETYTAIRAAAGKDFLVGVKLNSADFQKGGFDESESVQVVQKLSEMGIDFIEVSGGNYESPQMLAAKDSTRKREAFFIDYAEKARAASQAPLIITGGFRSQTAMEDALSSGHLDLVGIARPFALVPDLANKMQNRTYQTVQADRIQTGVAFVDKKAGAMLEMNWYMTQMDLIGQGKQSNPKIVGVESIAENFAGKEGHHHHHH | not soluble |
| AHHHHHHASAKWVCKICGYIYDEDAGDPDNGISPGTKFEELPDDWVCPICGAPKSEFEKLEDGSEKVDRIIQMEIGRINSHLPKARKSLCELLKEDSPSIELRDGSLHYFRRSELEFLKTLAGEEACLVKLPIILELSTLDRGYFVVRGRGEVRVIKKLLELSEDIYLEENTVRLPRYYLPTIRRKLPTTTVYAFITEW | soluble |
| MAHHHHHHMRLYNSLKQELVAATGAKMLGSGGLIDWSKHQVFDNPSDISQTFNEIIDMLAEYFDVDVYATRLNYYRDGTQWKPQHHDSHAYGGRALREDFTVGLSLGATRSLLFVHEASQRDFNFPQLNGDCFAFTGEVNSLFTHGVPRVHTPTGDRFSIIAWGRRRNLNERNGGVPSSAAAQVKGYRINTMEDAVEVAKQLVAAEPGAAAAKKAMPPPCASGDASSGGVATATRPAKRHKRRLQ | soluble |
| MHHHHHHSSRQEPPKIHLDCPGRIPDTIVVVAGNKLRLDVPISGDPAPTVIWQKAITQGNKAPARPAPDAPEDTGDSDEWVFDKKLLCETEGRVRVETTKDRSIFTVEGAEKEDEGVYTVTVKNPVGEDQVNLTVKVID | soluble |
| MKNKLPPFIEIYRALIATPSISATEEALDQSNADLITLLADWFKDLGFNVEVQPVPGTRNKFNMLASTGQGAGGLLLAGHTDTVPFDDGRWTRDPFTLTEHDGKLYGLGTADMKGFFAFILDALRDVDVTKLKKPLYILATADEETSMAGARYFAETTALRPDCAIIGEPTSLQPVRAHKGHISNAIRIQGQSGHSSDPARGVNAIELMHDAIGHILQLRDNLKERYHYEAFTVPYPTLNLGHIHGGDASNRICAWCELHMDIRPLPGMTLNELNGLLNDALAPVSERWPGRLTVDELHPPIPGYECPPNHQLVEVVEKLLGAKTEVVNYCTEAPFIQTLCPTLVLGPGSINQAHQPDEYLETRFIKPTRELITQVIHHFCWH | soluble |

— the DeepSol protein solubility set
